Tests used:
[1] = molecular target: HSV-1 nuclear egress complex NEC220 (UL31 1–306 with UL34 1–220) (herpes simplex virus type 1) (UniProt P10215)
[2] = molecular target: HSV-1 nuclear egress complex NEC220 (UL31 1–306 with UL34 1–220) (herpes simplex virus type 1) (UniProt P10215); remark: listed apart in the source
[3] = molecular target: HSV-1 nuclear egress complex NEC220 (UL31 1–306 with UL34 1–220) (herpes simplex virus type 1) (UniProt P10215); remark: listed apart in the source

HSV-1 UL25∆44 Q72A (from UniProt P10209 45-580) (domain or fragment)
inhibition of NEC220-mediated budding of giant unilamellar vesicles in vitro (1 μM NEC220; not inhibitory at NEC:UL25 1:1, value at 1:10) (% reduction in budding) [1]: 90

UL25^native(45–94) peptide (from UniProt P10209 45-94)
inhibition of NEC220-mediated budding of giant unilamellar vesicles in vitro (1 μM NEC220; NEC:peptide 1:0.1, 1:0.3, 1:0.6, 1:1 and 1:10; maximal effect at 1:1) (% reduction in budding) [2]: 75

B1: (EAEKAAK)7EAEK peptide (peptide)
peptide: EAEKAAKEAEKAAKEAEKAAKEAEKAAKEAEKAAKEAEKAAKEAEKAAKEAEK
inhibition of NEC220-mediated budding of giant unilamellar vesicles in vitro (1 μM NEC220; not inhibitory at NEC:peptide 1:1, value at 1:10) (% reduction in budding) [3]: 50

Source: paper PMC7893173
